This is an account of results in US20100099610.

In series [1] the target is wild type human growth hormone, P01241.

Changes are numbered by the printed parent chain.

hGHQ40N, P01241, sequence (P01241 27-217 Q66N): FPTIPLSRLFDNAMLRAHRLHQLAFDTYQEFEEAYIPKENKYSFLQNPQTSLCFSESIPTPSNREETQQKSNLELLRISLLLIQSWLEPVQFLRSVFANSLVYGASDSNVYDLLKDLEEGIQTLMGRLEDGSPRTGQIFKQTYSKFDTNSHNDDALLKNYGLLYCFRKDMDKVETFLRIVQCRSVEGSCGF
hGHQ141N, P01241, sequence (P01241 27-217 Q167N): as the sequence (P01241 27-217 Q66N) above, with N40Q, Q141N counted along it
wild type human growth hormone, P01241, sequence (P01241 27-217): as the sequence (P01241 27-217 Q66N) above, with N40Q counted along it

B1: AlaPro-mTGase from S. mobaraensis (protein)
chain: APDSDDRVTPPAEPLDRMPDPYRPSYGRAETVVNNYIRKWQQVYSHRDGRKQQMTEEQREWLSYGCVGVTWVNSGQYPTNRLAFASFDEDRFKNELKNGRPRSGETRAEFEGRVAKESFDEEKGFQRAREVASVMNRALENAHDESAYLDNLKKELANGNDALRNEDARSPFYSALRNTPSFKERNGGNHDPSRMKAVIYSKHFWSGQDRSSSADKRKYGDPDAFRPAPGTGLVDMSRDRNIPRSPTSPGEGFVNFDYGWFGAQTEADADKTVWTHGNHYHAPNGSLGAMHVYESKFRNWSEGYSDFDRGAYVITFIPKSWNTAPDKVKQGWP
B1: the Activity (RFU/sec/µg), dansyl-cadaverine fluorescence kinetics in the series with hGHQ141N, P01241 came out at 1.56 RFU/sec/µg. In addition, the Activity towards hGHQ40N (RFU/sec/µg), dansyl-cadaverine fluorescence kinetics in the series with hGHQ40N, P01241 came out at 5.05 RFU/sec/µg. In series [1], the “conversion rate by CE (FIG. 2B); reaction time 30 minutes” value is “conversion rate=32%”; the hGH conv. rate (%) by CE, reference of the separate experiment; reaction time 45 m, enzyme 4.6 µg/ml came to 39%; the hGH conv. rate (%) by CE; reaction time 30 m, enzyme 9.6 µg/ml was determined as 33%.

B2: GlyPro-mTGase from S. mobaraensis (protein)
chain: B1 chain with A1G
B2 displayed an Activity (RFU/sec/µg), dansyl-cadaverine fluorescence kinetics with hGHQ141N, P01241 of 1.13 RFU/sec/µg. Besides, the Activity towards hGHQ40N (RFU/sec/µg), dansyl-cadaverine fluorescence kinetics with hGHQ40N, P01241 turned out to be 4.28 RFU/sec/µg.

B3: Met-mTGase from S. ladakanum (protein)
chain: MDSDERVTPPAEPLDRMPDPYRPSYGRAETIVNNYIRKWQQVYSHRDGRKQQMTEEQREWLSYGCVGVTWVNSGQYPTNRLAFAFFDEDKYKNELKNGRPRSGETRAEFEGRVAKDSFDEAKGFQRARDVASVMNKALENAHDEGAYLDNLKKELANGNDALRNEDARSPFYSALRNTPSFKDRNGGNHDPSKMKAVIYSKHFWSGQDRSGSSDKRKYGDPEAFRPDRGTGLVDMSRDRNIPRSPTSPGESFVNFDYGWFGAQTEADADKTVWTHGNHYHAPNGSLGAMHVYESKFRNWSDGYSDFDRGAYVVTFVPKSWNTAPDKVKQGWP
Regarding B3, the Activity (RFU/sec/µg), dansyl-cadaverine fluorescence kinetics in the series with hGHQ141N, P01241 is 0.8 RFU/sec/µg. In the series with hGHQ40N, P01241, the Activity towards hGHQ40N (RFU/sec/µg), dansyl-cadaverine fluorescence kinetics was determined as 4.74 RFU/sec/µg.

B4: AlaPro-mTGase from S. ladakanum (protein)
chain: APDSDERVTPPAEPLDRMPDPYRPSYGRAETIVNNYIRKWQQVYSHRDGRKQQMTEEQREWLSYGCVGVTWVNSGQYPTNRLAFAFFDEDKYKNELKNGRPRSGETRAEFEGRVAKDSFDEAKGFQRARDVASVMNKALENAHDEGAYLDNLKKELANGNDALRNEDARSPFYSALRNTPSFKDRNGGNHDPSKMKAVIYSKHFWSGQDRSGSSDKRKYGDPEAFRPDRGTGLVDMSRDRNIPRSPTSPGESFVNFDYGWFGAQTEADADKTVWTHGNHYHAPNGSLGAMHVYESKFRNWSDGYSDFDRGAYVVTFVPKSWNTAPDKVKQGWP
For B4, in the series with hGHQ141N, P01241, the Activity (RFU/sec/µg), dansyl-cadaverine fluorescence kinetics is 1.02 RFU/sec/µg. The Activity towards hGHQ40N (RFU/sec/µg), dansyl-cadaverine fluorescence kinetics in the series with hGHQ40N, P01241 was found to be 6.91 RFU/sec/µg.

B5: GlyPro-mTGase_Y62H_Y75N from S. ladakanum (protein)
chain: B4 chain with A1G, Y64H, Y77N
The protein B5 came in with a hGH conv. rate (%) by CE; reaction time 75 m, enzyme 34.5 µg/ml in series [1] of 38%.

B6: GlyPro-mTGase_Y62H_Y75F from S. ladakanum (protein)
chain: B4 chain with A1G, Y64H, Y77F, K329T
Turning to B6, in series [1], the RS (relative selectivity against AlaPro-mTGase from S. mobaraensis), separate experiment was 7.6; the Selectivity (Q141/Q40) by CE, separate experiment; reaction time 60 m, enzyme 8.8 µg/ml is 76.5; the hGH conv. rate (%) by CE, separate experiment; reaction time 60 m, enzyme 8.8 µg/ml came to 38.1%; the hGH conv. rate (%) by CE; reaction time 120 m, enzyme 7 µg/ml was found to be 49.4%.

B7: GlyPro-mTGase_Y75N from S. ladakanum (protein)
chain: B4 chain with A1G, Y77N
Take B7: in series [1], the hGH conv. rate (%) by CE; reaction time 120 m, enzyme 6.5 µg/ml is 44% and the “hGH conversion rate by CE (FIG. 2F); reaction time 90 m” value is recorded as “hGH conversion rate=50%”.

B8: GlyPro-mTGase_Y75F from S. ladakanum (protein)
chain: B4 chain with A1G, Y77F
B8: in series [1], the hGH conv. rate (%) by CE; reaction time 60 m, enzyme 12.9 µg/ml was found to be 41% and the “hGH conversion rate by CE (FIG. 2E); reaction time 75 m” value is recorded as “hGH conversion rate=33%”.

B9: GlyPro-mTGase from S. ladakanum (protein)
chain: B4 chain with A1G
Turning to B9, the Activity (RFU/sec/µg), dansyl-cadaverine fluorescence kinetics with hGHQ141N, P01241 was 0.48 RFU/sec/µg. Moreover, the Activity towards hGHQ40N (RFU/sec/µg), dansyl-cadaverine fluorescence kinetics with hGHQ40N, P01241 was 4.25 RFU/sec/µg. The hGH conv. rate (%) by CE; reaction time 15 m, enzyme 16 µg/ml in series [1] amounted to 55%.

B10: Met-mTGase from S. mobaraensis (protein)
chain: MDSDDRVTPPAEPLDRMPDPYRPSYGRAETVVNNYIRKWQQVYSHRDGRKQQMTEEQREWLSYGCVGVTWVNSGQYPTNRLAFASFDEDRFKNELKNGRPRSGETRAEFEGRVAKESFDEEKGFQRAREVASVMNRALENAHDESAYLDNLKKELANGNDALRNEDARSPFYSALRNTPSFKERNGGNHDPSRMKAVIYSKHFWSGQDRSSSADKRKYGDPDAFRPAPGTGLVDMSRDRNIPRSPTSPGEGFVNFDYGWFGAQTEADADKTVWTHGNHYHAPNGSLGAMHVYESKFRNWSEGYSDFDRGAYVITFIPKSWNTAPDKVKQGWP
Turning to B10, in the series with hGHQ141N, P01241, the Activity (RFU/sec/µg), dansyl-cadaverine fluorescence kinetics was 1.24 RFU/sec/µg. The protein further returned an Activity towards hGHQ40N (RFU/sec/µg), dansyl-cadaverine fluorescence kinetics in the series with hGHQ40N, P01241 of 5.44 RFU/sec/µg.

B11: Mature mTGase from Streptoverticillium ladakanum (protein)
chain: DSDERVTPPAEPLDRMPDPYRPSYGRAETIVNNYIRKWQQVYSHRDGRKQQMTEEQREWLSYGCVGVTWVNSGQYPTNRLAFAFFDEDKYKNELKNGRPRSGETRAEFEGRVAKDSFDEAKGFQRARDVASVMNKALENAHDEGAYLDNLKKELANGNDALRNEDARSPFYSALRNTPSFKDRNGGNHDPSKMKAVIYSKHFWSGQDRSGSSDKRKYGDPEAFRPDRGTGLVDMSRDRNIPRSPTSPGESFVNFDYGWFGAQTEADADKTVWTHGNHYHAPNGSLGAMHVYESKFRNWSDGYSDFDRGAYVVTFVPKSWNTAPDKVKQGWP
On to B11, for which, in the series with hGHQ141N, P01241, the Activity (RFU/sec/µg), dansyl-cadaverine fluorescence kinetics is 0.63 RFU/sec/µg; the “HPLC peak area of product-Q40 (FIG. 3, bottom)” value is reported as “The first peak (19.2 min, area 127) is product-Q40”; the product-Q40 after 30 minutes, FPLC areas normalized to 100 (normalized to 100) came out at 10. Further, in the series with hGHQ40N, P01241, the Activity towards hGHQ40N (RFU/sec/µg), dansyl-cadaverine fluorescence kinetics was 3.55 RFU/sec/µg; the “HPLC peak area of product-Q141 (FIG. 3, top)” value was “The first peak (26.5 min, area 1238) is product-Q141”; the product-Q141 after 30 minutes, FPLC areas normalized to 100 (normalized to 100) was found to be 77.

B12: mTGase from Streptomyces mobaraensis (protein)
chain: DSDDRVTPPAEPLDRMPDPYRPSYGRAETVVNNYIRKWQQVYSHRDGRKQQMTEEQREWLSYGCVGVTWVNSGQYPTNRLAFASFDEDRFKNELKNGRPRSGETRAEFEGRVAKESFDEEKGFQRAREVASVMNRALENAHDESAYLDNLKKELANGNDALRNEDARSPFYSALRNTPSFKERNGGNHDPSRMKAVIYSKHFWSGQDRSSSADKRKYGDPDAFRPAPGTGLVDMSRDRNIPRSPTSPGEGFVNFDYGWFGAQTEADADKTVWTHGNHYHAPNGSLGAMHVYESKFRNWSEGYSDFDRGAYVITFIPKSWNTAPDKVKQGWP
Regarding B12, in the series with hGHQ141N, P01241, the Activity (RFU/sec/µg), dansyl-cadaverine fluorescence kinetics is 0.98 RFU/sec/µg; the “HPLC peak area of product-Q40 (FIG. 4, bottom)” value was “The first peak (19.5 min, area 296) is product-Q40”; the product-Q40 after 30 minutes, FPLC areas normalized to 100 (normalized to 100) came out at 19. Besides, in the series with hGHQ40N, P01241, the Activity towards hGHQ40N (RFU/sec/µg), dansyl-cadaverine fluorescence kinetics came to 3.35 RFU/sec/µg; the “HPLC peak area of product-Q141 (FIG. 4, top)” value is on record as “The first peak (26.9 min, area 1283) is product-Q141”; the product-Q141 after 30 minutes, FPLC areas normalized to 100 (normalized to 100) is 71.
